Data from patent US20200031866A1, “PEPTIDE INHIBITORS OF SODIUM CHANNELS” (SPYRYX BIOSCIENCES, INC., priority 2016, published 2020).
“Also recorded” adds a separate entry of the source. Square brackets hold non-standard residues; d marks the D form. Ends that are not written are not given here. Peptide text beside a SMILES is read from it. Nle = CCCC[C@H](N)C(=O)O

What was measured:
ENaC [1] = molecular target: T1, ENaC (Homo sapiens, UniProt P37088+P51168+P51170); assay: Airway surface liquid (ASL) height in human bronchial epithelial cultures by XZ-confocal microscopy; type: cell-based; details: peptides added mucosally to HBECs at 30 μM, ASL height measured 3 h later; FIGS. 2A-2B
T1 construct: endogenous in cells; host or cells: primary human bronchial epithelial cultures (HBECs) at air-liquid interface
T1 sequence (P37088 1-669): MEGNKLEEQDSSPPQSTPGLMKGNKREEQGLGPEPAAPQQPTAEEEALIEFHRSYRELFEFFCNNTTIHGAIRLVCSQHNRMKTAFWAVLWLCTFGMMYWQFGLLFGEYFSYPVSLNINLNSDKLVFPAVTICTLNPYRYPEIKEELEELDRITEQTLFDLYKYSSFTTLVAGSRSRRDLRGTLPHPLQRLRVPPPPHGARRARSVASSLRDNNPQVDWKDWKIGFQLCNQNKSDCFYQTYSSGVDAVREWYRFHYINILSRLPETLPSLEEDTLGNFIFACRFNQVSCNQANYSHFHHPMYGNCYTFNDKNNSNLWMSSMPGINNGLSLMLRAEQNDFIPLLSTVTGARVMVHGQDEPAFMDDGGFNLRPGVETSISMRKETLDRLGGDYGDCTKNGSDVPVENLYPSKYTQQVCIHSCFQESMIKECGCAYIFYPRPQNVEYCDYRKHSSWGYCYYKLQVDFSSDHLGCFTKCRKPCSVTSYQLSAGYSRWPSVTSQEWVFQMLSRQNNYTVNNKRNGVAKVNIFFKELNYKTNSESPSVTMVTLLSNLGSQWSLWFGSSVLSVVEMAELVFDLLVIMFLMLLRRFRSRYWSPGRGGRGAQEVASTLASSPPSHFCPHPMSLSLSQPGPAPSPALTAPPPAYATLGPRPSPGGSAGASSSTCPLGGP
T1 sequence (P51168 1-640): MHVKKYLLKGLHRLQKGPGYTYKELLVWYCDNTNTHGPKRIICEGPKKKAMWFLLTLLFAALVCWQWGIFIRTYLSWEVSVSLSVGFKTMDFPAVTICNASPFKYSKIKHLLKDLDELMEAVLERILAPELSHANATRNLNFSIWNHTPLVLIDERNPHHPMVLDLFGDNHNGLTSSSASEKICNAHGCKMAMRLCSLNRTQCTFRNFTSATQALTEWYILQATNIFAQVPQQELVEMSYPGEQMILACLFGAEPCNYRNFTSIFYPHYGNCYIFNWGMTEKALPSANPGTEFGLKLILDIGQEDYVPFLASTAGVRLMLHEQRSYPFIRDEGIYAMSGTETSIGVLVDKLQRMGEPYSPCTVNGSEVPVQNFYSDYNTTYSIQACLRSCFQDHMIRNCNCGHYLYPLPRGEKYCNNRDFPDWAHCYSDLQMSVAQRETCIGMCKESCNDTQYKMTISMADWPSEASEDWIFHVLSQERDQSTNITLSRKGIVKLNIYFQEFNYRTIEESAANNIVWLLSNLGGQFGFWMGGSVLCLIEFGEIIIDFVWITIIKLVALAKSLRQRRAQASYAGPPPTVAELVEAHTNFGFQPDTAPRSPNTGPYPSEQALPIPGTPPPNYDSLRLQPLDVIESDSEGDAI
T1 sequence (P51170 1-649): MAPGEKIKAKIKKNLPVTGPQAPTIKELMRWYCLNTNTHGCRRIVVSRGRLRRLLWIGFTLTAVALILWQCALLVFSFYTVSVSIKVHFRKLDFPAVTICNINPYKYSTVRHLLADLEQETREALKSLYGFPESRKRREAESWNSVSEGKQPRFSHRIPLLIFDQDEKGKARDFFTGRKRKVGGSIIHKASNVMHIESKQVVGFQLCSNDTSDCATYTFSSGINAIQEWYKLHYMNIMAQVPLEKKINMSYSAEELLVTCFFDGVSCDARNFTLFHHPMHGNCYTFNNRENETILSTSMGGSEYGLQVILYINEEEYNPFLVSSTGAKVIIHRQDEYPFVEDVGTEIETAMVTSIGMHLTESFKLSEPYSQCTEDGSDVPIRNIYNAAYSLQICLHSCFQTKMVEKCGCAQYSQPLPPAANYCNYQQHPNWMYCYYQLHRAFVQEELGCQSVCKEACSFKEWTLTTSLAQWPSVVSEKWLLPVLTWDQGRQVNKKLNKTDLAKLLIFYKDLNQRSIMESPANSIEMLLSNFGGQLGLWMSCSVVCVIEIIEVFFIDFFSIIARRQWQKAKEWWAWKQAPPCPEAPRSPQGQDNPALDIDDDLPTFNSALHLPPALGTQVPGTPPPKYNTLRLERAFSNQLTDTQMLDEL
Excerpt: Cells were harvested by enzymatic digestion from human bronchial tissue as previously described under a protocol approved by the UNC School of Medicine IRB (Tarran et al., J. Gen. Physiol. 127:591 (2006)). Human excess donor lungs and excised recipient lungs were obtained at the time of lung transplantation from portions of main stem or […] bronchi and cells were harvested by enzymatic digestion. All preparations were maintained at an air-liquid interface in a modified bronchial epithelial medium and used 2-5 weeks after seeding on 12 mm T-Clear inserts (Corning Costar) coated with human placental type VI collagen (Sigma). Phosphate buffered saline (PBS) was used for washing human bronchial epithelial culture mucosal surfaces.
To label airway surface liquid, Ringer containing rhodamine-dextran (2 mg/ml; Invitrogen) was added to human bronchial epithelial culture mucosal surfaces. […] 10 points per culture were scanned and an average airway surface liquid height determined. […]
To confirm our alanine-scan data, we made a peptide of subsequence A (LPVPLDQT (SEQ ID NO:113); FIG. 1). […] Peptides were added mucosally to HBECs at 30 μM and ASL height measured 3 h later by XZ-confocal microscopy. […]

alpha-ENaC = molecular target: T2, alpha-ENaC (Homo sapiens, UniProt P37088+P51168+P51170); assay: Internalization of alpha-ENaC in HEK293T cells, GFP-tagged alpha-ENaC co-expressed with beta and gamma ENaC; type: cell-based; details: beta-ENaC co-expressed, FIGS. 5A-5U
T2 construct: expressed in transfected cells; host or cells: HEK293T
T2 sequence (P37088 1-669): T1 sequence (P37088 1-669)
T2 sequence (P51168 1-640): T1 sequence (P51168 1-640)
T2 sequence (P51170 1-649): T1 sequence (P51170 1-649)
Excerpt: HEK293T cells were transfected with gfp-αENaC where gfp was fused at the N-terminus of ENaC and unlabeled βENaC and γENaC using lipofectamine in 384 well plates as per the manufacturer's instructions and as published previously (see, e.g., Hobbs et al. Am J Physiol Lung Cell Mol Physiol. 2013 December; 305(12):L990-L1001. doi: 10.1152/ajplung.00103.2013. Epub 2013 October; Garland et al. Proc Natl Acad Sci USA. 2013 Oct. 1; 110(40):15973-8. doi: 10.1073/pnas.1311999110. Epub 2013 Sep. 16.; Tan et al. J Physiol. 2014 Dec. 1; 592(Pt 23):5251-68). Twenty-four hours later, peptide or vehicle control were added at t=0 and fluorescence was read using a Tecan M1000 plate reader 3 h later. Fluorescence was read at 488 nm (excitation)/510 nm (emission).

proteases = type: in vitro ADME
ENaC [2] = molecular target: T1, ENaC; assay: Airway surface liquid (ASL) height in human bronchial epithelial cultures by XZ-confocal microscopy; type: cell-based; details: FIGS. 3A, 3B; for potency compared to S18 (dose response): 4
βENaC-Tg mice = type: in vivo; details: βENaC-Tg C57BL:C3H mice, fourteen-day treatment; FIGS. 7C, 7D, 7F
Excerpt: Like CF patients, βENaC-Tg mice are disease free at birth, but soon develop obstructive lung disease (Zhou, Z., et al. Am J Respir Crit Care Med 178, 1245-1256 (2008)). C57BL:FVB and C57BL:C3H mixed strains have 90% and 50% mortality, respectively, and the reproducibility of the disease on these backgrounds is sufficiently high that reliable data are produced with n of about 8-10 animals/group. Furthermore, the βENaC-Tg mouse responds to therapeutic interventions in a fashion similar to CF/COPD in humans, and the development of lung disease can be prevented following inhibition of lung disease at birth (Livraghi, A., et al. J Immunol 182, 4357-4367 (2009)). S18-derived peptides or vehicle were dosed one to three times a day by intranasal instillation (1 μl/g body weight) for 14 days in parallel cohorts of mice. Mice were weighed daily and, if a diuretic effect was found, the volume excreted was replaced by sub-cutaneous injections of sterile saline. At the end of the treatment, mice were sacrificed for phenotypic analysis.

| Molecule | potency compared to S18 (dose response) (ENaC [2]) | efficacy compared to S18 (dose response) (ENaC [2]) | also measured |
| --- | --- | --- | --- |
| DQTLPLNVNP (not fully specified) [SEQ ID NO:114, NH3-…-NH2, overlapping control peptide of S18] |  |  | activity on ASL height / inhibition of ENaC compared with S18 (ENaC [1]): inactive |
| N=C(N)NC(=O)c1nc(Cl)c(N)nc1N [amiloride] |  |  | reduction of alpha-ENaC / functional receptor on the cell surface (alpha-ENaC): does not reduce the amount of functional receptor on the surface of cells |
| H-LPVPLDQT-NH2 [SEQ ID NO:113, LPVPLDQT] |  |  | activity on ASL height / inhibition of ENaC compared with S18 (ENaC [1]): retained similar activity to S18; also recorded: required for inhibition of ENaC and preservation of ASL height; susceptibility to proteolytic degradation (proteases): more susceptible to proteolytic degradation |
| CCCC[C@H](NC(=O)[C@@H]1CCCN1C(=O)[C@H](CC(C)C)NC(=O)[C@@H](C)NC(=O)[C@@H](C)N)C(=O)N1CCC[C@H]1C(=O)N[C@@H](CC(C)C)C(=O)N[C@@H](CC(=O)O)C(=O)N[C@@H](CCC(N)=O)C(=O)N[C@H](C(=O)N[C@H](C)C(=O)N[C@H](C)C(N)=O)[C@@H](C)O [SEQ ID NO:5, aaLPNlePLDQTaa] (H-[dA][dA]LP[Nle]PLDQT[dA][dA]-NH2; N-terminus assumed) | log-fold increase in potency; also recorded: significant increase in potency; also recorded: increased potency |  |  |
| aaLPVPNleDQTaa [SEQ ID NO:6] |  | diminished |  |
| SEQ ID NO:127: NH3-LPIPLDQT-NH2 (H-LPIPLDQT-NH2) |  |  | percent survival (βENaC-Tg mice): increased percent survival |
| aaLPVPLDQTaa ([dA][dA]LPVPLDQT[dA][dA]-NH2; N-terminus assumed; SMILES CC(C)C[C@H](NC(=O)[C@@H]1CCCN1C(=O)[C@@H](NC(=O)[C@@H]1CCCN1C(=O)[C@H](CC(C)C)NC(=O)[C@@H](C)NC(=O)[C@@H](C)N)C(C)C)C(=O)N[C@@H](CC(=O)O)C(=O)N[C@@H](CCC(N)=O)C(=O)N[C@H](C(=O)N[C@H](C)C(=O)N[C@H](C)C(N)=O)[C@@H](C)O) [SEQ ID NO:3, a = D-alanine] | identical dose responses; also recorded: equal | identical dose responses; also recorded: equal |  |
| aaLPVPLDQTLPLNVNPaa ([dA][dA]LPVPLDQTLPLNVNP[dA][dA]-NH2; N-terminus assumed; SMILES CC(C)C[C@H](NC(=O)[C@@H]1CCCN1C(=O)[C@H](CC(C)C)NC(=O)[C@@H](NC(=O)[C@H](CCC(N)=O)NC(=O)[C@H](CC(=O)O)NC(=O)[C@H](CC(C)C)NC(=O)[C@@H]1CCCN1C(=O)[C@@H](NC(=O)[C@@H]1CCCN1C(=O)[C@H](CC(C)C)NC(=O)[C@@H](C)NC(=O)[C@@H](C)N)C(C)C)[C@@H](C)O)C(=O)N[C@@H](CC(N)=O)C(=O)N[C@H](C(=O)N[C@@H](CC(N)=O)C(=O)N1CCC[C@H]1C(=O)N[C@H](C)C(=O)N[C@H](C)C(N)=O)C(C)C) [SEQ ID NO:2, a = D-alanine] | equal | equal |  |
| aaLPVPLDQSaa ([dA][dA]LPVPLDQS[dA][dA]-NH2; N-terminus assumed; SMILES CC(C)C[C@H](NC(=O)[C@@H]1CCCN1C(=O)[C@@H](NC(=O)[C@@H]1CCCN1C(=O)[C@H](CC(C)C)NC(=O)[C@@H](C)NC(=O)[C@@H](C)N)C(C)C)C(=O)N[C@@H](CC(=O)O)C(=O)N[C@@H](CCC(N)=O)C(=O)N[C@@H](CO)C(=O)N[C@H](C)C(=O)N[C@H](C)C(N)=O) [SEQ ID NO:9] | diminished |  |  |
